Experimental data: the supplement of paper PMC9170038

System: K4 kissing-loop RNA reporter
Assay: apparent KD of K4 kissing-loop reporter; higher = weaker reporter binding
Settings: Eterna round: R107
Procedure: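 RNA-MaP round R107: designed RNA switches with theophylline, tryptophan, arginine or FMN aptamers are transcribed on-chip within common flanks. They are titrated with a labelled K4 kissing-loop RNA reporter in RNA-MaP buffer (100 mM Tris pH 7.5, 80 mM KCl, 4 mM MgCl2), without ligand or with the indicated ligand. Median apparent KD per design.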

[1] = input ligand: theophylline 20 uM
[2] = input ligand: tryptophan 2.4 mM
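Also: bound reporter read as fluorescence of individual clusters on recovered sequencing chips by microscopy, with normalized cluster intensities fitted with a binding model.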

| Sequence | apparent KD of K4 kissing-loop reporter (input ligand: FMN 200 uM) [µM] | apparent KD of K4 kissing-loop reporter (input ligand: arginine 13.2 mM) [µM] | apparent KD of K4 kissing-loop reporter (input ligand: none) [µM] | apparent KD of K4 kissing-loop reporter [1] [µM] | apparent KD of K4 kissing-loop reporter [2] [µM] |
| --- | --- | --- | --- | --- | --- |
| AAAUUUAAUAUAUUUAAUUAAUUAAGUGAUACCAGACAUUAAUAAGUCCCUUGGCAGCACAAUGCAGUGAUGUUGCUUAUAAUAA [JR_SSTheophyA_Sub009] | 0.129 | 0.12 | 0.0766 | 0.169 | 0.0763 |
| AACAACUUGUUUGUCGGGUGUUCGCGCGAUACCAGCCGAAUGGAUGGCCCUUGGCAGCGCAGCGAGUGAUGUUCGCCCGCUUGAC [Exclusion Theophylline A GF 24] | 0.611 | 0.422 | 0.552 | 0.529 | 0.583 |
| AACACUCACGGAGUGAUGUUCUGGAAUAAACGAGGACCGGUACGGCCGCCACUCGAAAAUGAGUGAGUCCUACGAAAAGUAGGAC [Omei inspired 4] | 0.357 | 0.394 | 0.361 | 0.405 | 0.108 |
| AACCUUGUAGUGAUGUUGCAAGGCGCUGAUACCAGUCACAGCCACGACCCUUGGCAGCAGUGGCGUUCAUGAUAAAAUAGAUUAA [theeternabot_sameState_KL_Theo_A_49] | 0.042 | 0.0415 | 0.0414 | 0.037 | 0.0399 |
| AACGUGGCCAAAGGAUAUCUCCCUACGUCGUUGCAUCUACCUCUGUUUGCUCUGAGUGAUGUUUGGAGAGAAGGUUGAGGCGAUU [theeternabot_exclusion_KL_FMN_B_29] | 0.532 | 0.317 | 0.442 | 0.513 | 0.387 |
| AACUGUCAAGGACAACAUUACUGAAGUGAUACCAGCAUCGAAAGAUGCCCUUGGCAGCACUGACUUGCAGUGAUGUUGCAAGUAA [BrourdMod 7 - Jieux - Exclusion - Theophylline A] | 0.211 | 0.165 | 0.194 | 0.2 | 0.194 |
| AACUGUCAAGGCCAACAUUACUGAGGUGAUACCAGCAUCGAAAGAUGCCCUUGGCAGCACCGACUUGCAGUGAUGUUGCAAGUAA [BrourdMod 12 - Jieux - Exclusion - Theophylline A] | 0.329 | 0.266 | 0.333 | 0.37 | 0.287 |
| AAGAGCUAGGCGGCCGCCACUAGAUGUGAACACAUACAAACCAGUGAUGUUGGUAUGAUGGACAGUAGGACCGGGCCUAGCUGAA [Exclusion - Tryptophan B (Freestyle 10)] | 0.998 | 0.585 | 1.01 | 1.35 | 0.995 |
| AAGCAGUCACUCGAAACCAUCGAAGAUGGGCGAGGACCGGUACGGCCGCCACUCGGAGUGAUGUUCCGAAGACUGCAAAAUAAAA | 0.377 | 0.348 | 0.592 | 0.443 | 0.354 |
| AAGCAGUCACUCGAAGCCAUCGAAGAUGGUCGAGGACCGGUACGGCCGCCACUCGGAGUGAUGUUCCGAAGACUGCAAAAUAAAA [#SwitchBubble 11] | 0.275 | 0.246 | 0.286 | 0.273 | 0.526 |
| AAGCAGUCACUCGCAGCCAUCGAAGAUGGGCGAGGACCGGUACGGCCGCCACUCGGAGUGAUGUUCCGCAGACUGCAAAAUAAAA | 0.536 | 0.343 | 0.35 | 0.437 | 0.428 |
| AAGCAGUCUCUCGAAGCCAUCGAAGAUGGGCGAGGACCGGUACGGCCGCCACUCGGAGUGAUGUUCCGAAGACUGCAAAAUAAAA [MatMod 10 - Jieux - Exclusion - Tryptophan A] | 0.281 | 0.223 | 0.396 | 0.243 | 0.308 |
| AAGCCAGAGAUUGCUGCGGGUUCCAGAGAUACCAGCCGUAUUGAAGGCCCUUGGCAGCUCGAGUGAUGUUCGAGCCGUCUCUAGC [Bisore] | 0.126 | 0.101 | 0.124 | 0.123 | 0.11 |
| AAGCGUGUCGCGGCCGCCACUCCUGAGUGAUGUUCAGAAAGCAGUUUUUUAUUCAGGAAAAGCGCGAGGACCGGGCGACGCCGAU [theeternabot_sameState_KL_Trp_B_1] | 0.367 | 0.207 | 0.46 | 0.328 | 0.515 |
| AAGGCACGGCUUCGGCCGUGCCAAAUAGAUACCAGCAUAAUAAUAUGCCCUUGGCAGCUAAAUAUAAAUUCAGUGAUGUUGGAUA [SS Theo A Tesla 2.2] | 0.573 | 0.412 | 0.604 | 0.649 | 0.546 |
| AAGGGCGGGACUUUCUCGCCGGAUAGAGAUACCAGCCCAGCAAUGGGCCCUUGGCAGCUCACUGACCUCAGUGAUGUUGAGGUUC [Quintege] | 0.31 | 0.214 | 0.213 | 0.208 | 0.185 |
| AAGUAAUGUAUAGAUUAUAUACAUUAAACAGAGGAUAUGCAUUAUUGCAGAAGGCUGAAUGCAGUGAUGUUGCAAUAAUUAUUUA [JR_SSFMNA_Sub002] | 0.0531 | 0.19 | 0.184 | 0.297 | 0.146 |
| AAGUCAUAGGCAGGAUAUGCUUAGUAUUAAGGCCAUAUAUACGUAUAGAGUGAUGUUUUGUACCAGGCAGAAGGGCUACAUCCGU [FMN B Excl V5 (+2U)] | 0.755 | 0.562 | 0.699 | 0.683 | 0.541 |
| AAGUGAUGUUGUAGUGAUGUUGUGAUGUUGCAGGAUAUAUAGUGAUGUAGAAGGGUAAGUACUGUUUUUUUUUUUGAGUGAUGUU [ookooyzrmullin] | 0.101 | 0.0417 | 0.0784 | 0.0675 | 0.0887 |
| AAGUGAUGUUGUAGUGAUGUUGUGAUGUUGCAGGAUAUAUAGUGAUGUAGAAGGGUAUGUGCAGUUUUUUUUUUUGAGUGUUGAU [dpdmullin] | 0.0766 | 0.0342 | 0.0599 | 0.0431 | 0.061 |
| AAGUGUUCUAGUGAUACCAGACAUUUCUAUUACAUUAAUAUAGCUAAGUGAUGUUUAGCAGUCCCUUGGCAGCACUAUUUCACUA [JR_SSTheophyB_Sub015] | 0.167 | 0.193 | 0.174 | 0.238 | 0.191 |

| Sequence | apparent KD of K4 kissing-loop reporter (input ligand: FMN 200 uM) [µM] | apparent KD of K4 kissing-loop reporter (input ligand: arginine 13.2 mM) [µM] | apparent KD of K4 kissing-loop reporter (input ligand: none) [µM] | apparent KD of K4 kissing-loop reporter [1] [µM] | apparent KD of K4 kissing-loop reporter [2] [µM] |
| --- | --- | --- | --- | --- | --- |
| AAGUUUUAUAAACUCAUGGUUUCGUCAGAUACCAGCCUCGAGAGAGGCCCUUGGCAGCUGCAUGAGUGAUGUUCAUGUUCGAAGA [KL_XTheoA8] | 0.253 | 0.26 | 0.374 | 0.239 | 0.251 |
| AAUAAAAUCACGGCCGCCACUGAAUAAUUACAAAGUAGUGAUGUUACUUUACAUAUCUUAUUUAACAGGACCGGGUGAAUAUUUA [JR_ExcTryptoB_Sub007] | 0.0786 | 0.0702 | 0.0762 | 0.0697 | 0.0783 |
| AAUAAAAUCACGGCCGCCACUGAUUAUUUUAUUAGGAGUGAUGUUCCUAUGACAAUAUACCUUAACAGGACCGGGUGAAUAUUUA [JR_ExcTryptoB_Sub010] | 0.0878 | 0.0896 | 0.0861 | 0.0944 | 0.0808 |
| AAUAAGGAGUGAUGUUCCAAGUGAUGUUAACGAGGACCGGUACGGCCGCCACUCGAUACGGCCGGAAAGUAAGAUAAACUACAAU [Same State - Tryptophan A (Freestyle 3)] | 0.0705 | 0.0513 | 0.0608 | 0.0559 | 0.0546 |
| AAUAUAGUGAUGUUAUAUAAGAAGGAGUUACGAGGACCGGUACGGCCGCCACUCGAAACGAGUGAAGAAGGAGGAAGGAGGAGGA [SSTRyptA.A] | 0.479 | 0.3 | 0.453 | 0.409 | 0.366 |
| AAUAUCUAGUAUAUAUUUAAUAAAACAGAUACCAGUGAUAAUAGACACCCUUGGCAGCUGGACGAGUGAUGUUCGUAUAUAUUAA [JR_SSTheophyA_Sub007] | 0.0907 | 0.153 | 0.108 | 0.184 | 0.0668 |
| AAUGCAUAGUGAAGGAGCGCGAUAAGCAGUGAUGUUGCUUAGCUAUUAUUCAUUUUUUUAACGCAGGUAGGUCGCACUUUGCAUA [JR_ExcArginiB_Sub016] | 0.166 | 0.142 | 0.135 | 0.148 | 0.144 |
| AAUGCAUUGUGAAGGAGCGCGUUAAGCAGUGAUGUUGCUUUUAUAUUUUUCAGUUUUAUAUCGCAGGUAGGUCGCACUUUGCAUA [JR_Nu_SSArginiB_Sub029] | 0.172 | 0.158 | 0.173 | 0.192 | 0.148 |
| AAUGUACAAGUGAUGUUUGUACUUUCCGAAGGAGCGUCUAAUAAGACAGGUAGGUCGCGGAUACUCUAAAUAAUCAGGUCAUUGA [#06 K4 Arginine A Exclusion] | 0.0899 | 0.089 | 0.0798 | 0.0806 | 0.0774 |
| AAUUUACAAUAAUCAUUUAAAGGAUCAGAAGGAGCGUGUUAUAACACAGGUAGGUCGCUGAGCGAGUGAUGUUCGCUAUAUACAA [JR_ExcArginiA_Sub002] | 0.0763 | 0.0977 | 0.0908 | 0.0998 | 0.0645 |
| AAUUUACAUUAAUUAUUUAAAGGUUCAGAAGGAGCGUGAAUUAACACAGGUAGGUCGCUGAGCGAGUGAUGUUCGCUAUAUACUA [JR_ExcArginiA_Sub003] | 0.0627 | 0.0689 | 0.0657 | 0.0911 | 0.0494 |
| AAUUUAUAUUUAUUCUUUAAAUGUUCAGAAGGAGCGUGAAUUAUCACAGGUAGGUCGCUGAGCUAGUGAUGUUGGCUAUAUACUA [whbob_Ex_Arginine_A_2t124] | 0.167 | 0.219 | 0.202 | 0.217 | 0.138 |
| ACAGUCGGCUGUGAUACCAGUCGUAUUACAACAUGUUGCAGUGAUGUUGCGAGAUAGGAUGACCCUUGGCAGCACUCAGUACGAC [Same State Theophylline B GF10] | 0.208 | 0.135 | 0.222 | 0.252 | 0.209 |
| ACAUUAGGCACGGCCGCCACUGGAUUAAGAUCUUAAGUAUUAAUUAACAUGAGUGAUGUUCAUGCCAGGACCGGGUGACUACCAU [KL-SSTryp-B11] | 0.275 | 0.222 | 0.261 | 0.267 | 0.252 |
| ACCACCAGCCGCACGAUACACGGGCAUUACCGAGGACCGGUACGGCCGCCACUCGCCCGCACGCUGGAUCGAGUGAUGUUCGAUC [theeternabot_sameState_KL_Trp_A_15] | 0.358 | 0.334 | 0.384 | 0.371 | 0.326 |
| ACCAUCAAAGAUGGCCUCGACACCGCUGAUACCAGAGUGAAAACACUCCCUUGGCAGCAGGUGAGUGAUGUUCACAGUCGAAGGA [Omel KL Theo A SS B v1] | 0.492 | 0.464 | 0.641 | 0.538 | 0.47 |
| ACGCGCGCGAGUGAUGUUCGGAGCGGCUGGCAGGAUAUGCCGCAAGGCAGAAGGGUCGUGGCGCGUCCAGGGUAACCUGGACGCG [#2 Exclusion - FMN A Attempt #28 (HarryS)] | 0.19 | 0.401 | 0.466 | 0.391 | 0.455 |
| ACGCGCGUGCGCUGGAAAGCGCACGCGCGUCGAGGACCGGUACGGCCGCCACUCGCUCGCGCCGAGUGAUGUUCGGCCGGCGAAC [#2 SameState - Tryptophan_A Attempt #2 (HarryS)] | 0.342 | 0.288 | 0.303 | 0.292 | 0.645 |
| ACGUCCGGGUUAAUCGUGGGCGUGGUGGAUACCAGUUCUUUAAUGAACCCUUGGCAGCCACAUGAGUGAUGUUCAUGUGCGAUGA [KL-XTheo-A10 #analogue] | 0.1 | 0.102 | 0.0962 | 0.0982 | 0.0954 |
| ACGUGCACCAGUGAUGUUGGAAAAUAUGAAGGAGCGGGAGAAAGCCCAGGUAGGUCGCAUAAUAGCACGAGCCACGAAAGUGGCA | 0.233 | 0.145 | 0.178 | 0.141 | 0.131 |
| ACGUGCACGAGUGAUGUUUGAAAAUCUGAAGGAGCGGGCGAAAGCCCAGGUAGGUCGCAGAAUAGCACGAGCCACGAAAGUGGCA | 0.202 | 0.272 | 0.319 | 0.142 | 0.191 |
